# According to patent US6358897B1, “Alkyl trypsin compositions and methods of use in contact lens cleaning and disinfecting systems” (Alcon Laboratories, Inc., priority 1996, dated 2002):
# Key:
# azocasein [1] = assay: Stability of Me-trypsin, trypsin and pancreatin in a disinfecting composition (Example 5C), azocasein method; type: physicochemical; details: for % Activity Remaining: Example 5C composition, 50 μg/ml (pancreatin 375 μg/ml)
# Protocol: Azocasein Method The following solutions are used in this assay: 1) Buffer solution: 0.05 M sodium phosphate buffer containing 0.9% sodium chloride, pH 7.6. 2) Substrate solution: 2 mg/ml azocasein in the buffer solution mentioned above. The assay is initiated by mixing 1 ml of an appropriately diluted (such that the enzyme activity is in the range of standard curve) enzyme composition in phosphate buffer with 2 ml of azocasein substrate solution (2 mg/ml). After incubation at 37° C. for 20 minutes, the mixture is removed from the incubator and 1 ml of trichloroacetic acid to (14% w/v) is added to stop the enzyme reaction. The mixture is vortexed well and allowed to stand at room temperature for 20 minutes. After centrifuging at 2500 rpm (with a Beckman GS-6R Centrifuge) for 15 minutes, the supernatant is filtered with a serum sampler. 2 ml of the clear yellow filtrate is then adjusted to a neutral pH with 2 ml of 0.5 N sodium hydroxide and the absorbance of 440 nm wavelength light is measured with a spectrophotometer. The amount of azocasein hydrolyzed is calculated based on a standard curve of known concentrations of azocasein solution developed under identical conditions. An enzyme activity unit (“AZ U”) is defined as that amount of enzyme which hydrolyzes 1 μg of azocasein substrate/minute at 37° C. The following is an example of the stability of Me-trypsin in a disinfecting composition of the present invention as compared to analogous compositions containing trypsin or pancreatin. The enzymes were solubilized in the Example 5C composition. The compositions were stored at room temperature or 30° C. for up to 42 days. At various time points, enzyme activity was assayed using the azocasein method.
# azocasein [2] = assay: Enzyme stability of the Example 6 multi-purpose composition versus trypsin or pancreatin compositions, azocasein method; type: physicochemical; details: Me-trypsin: Example 6 composition, trypsin/pancreatin: 1.4 mL of Example 3B analog in 120 mL of Example 2B
# Protocol: Azocasein Method The following solutions are used in this assay: 1) Buffer solution: 0.05 M sodium phosphate buffer containing 0.9% sodium chloride, pH 7.6. 2) Substrate solution: 2 mg/ml azocasein in the buffer solution mentioned above. The assay is initiated by mixing 1 ml of an appropriately diluted (such that the enzyme activity is in the range of standard curve) enzyme composition in phosphate buffer with 2 ml of azocasein substrate solution (2 mg/ml). After incubation at 37° C. for 20 minutes, the mixture is removed from the incubator and 1 ml of trichloroacetic acid to (14% w/v) is added to stop the enzyme reaction. The mixture is vortexed well and allowed to stand at room temperature for 20 minutes. After centrifuging at 2500 rpm (with a Beckman GS-6R Centrifuge) for 15 minutes, the supernatant is filtered with a serum sampler. 2 ml of the clear yellow filtrate is then adjusted to a neutral pH with 2 ml of 0.5 N sodium hydroxide and the absorbance of 440 nm wavelength light is measured with a spectrophotometer. The amount of azocasein hydrolyzed is calculated based on a standard curve of known concentrations of azocasein solution developed under identical conditions. An enzyme activity unit (“AZ U”) is defined as that amount of enzyme which hydrolyzes 1 μg of azocasein substrate/minute at 37° C. […] The trypsin or pancreatin compositions were prepared by dispersing 1.4 mL of Example 3B (wherein Me-trypsin was replaced by either trypsin or pancreatin) in 120 mL of Example 2B. The compositions were incubated at room temperature, 30° and 35° C. At the appointed time, aliquots were tested for enzyme activity by the azocasein method. Activity levels were compared with initial levels and expressed as percent remaining activity.
# lysozyme deposits = assay: Cleaning efficacy on lysozyme-deposited contact lenses, fluorescence method; details: for Lysozyme, Total: hydrolysate plus ACN/TFA extract; for Lysozyme, ACN/TFA Extract: lens extract after overnight cleaning at room temperature; for % Cleaning Efficacy: overnight soak at room temperature, no rubbing; for Lysozyme, Hydrolysate: soaking solution after overnight cleaning at room temperature
# Protocol: The following example illustrates the cleaning efficacy of a multi-purpose composition (Example 6) of the present invention. The cleaning efficacy was determined using the following protocol. 1. Physiological/Thermal Combination Model Each lens was first soaked in a 5 ml lysozyme solution (native or C14-labeled, 1.0 mg/ml in 0.05M phosphate buffer containing 0.9% sodium chloride, pH 7.4) at 37° C. for 24 hours, then removed to a saline solution (2 ml) and heated at 90° C. for 15 minutes. 2. Cleaning and Assessment of Lysozyme Deposits Each deposited lens was placed in a 5 ml of a test solution and agitated in a rotary shaker at room temperature overnight (usually >12 hours). The compositions tested were: 1) the Example 6 composition (Me-trypsin), 2) 1 drop of Example 3B (except Me-trypsin was replaced by trypsin) in 5 mL of the Example 2B composition and 3) 1 drop of Supraclens® Daily Protein Remover (pancreatin) in 5 mL of the Example 2B composition. After rinsing the lens by dipping three times in three consecutive 40 ml saline solution, the lens was subjected to extraction with 5 ml ACN/TFA solution (acetonitrile/trifluoroacetic acid/water: 500/1/500 v/v) for at least 2 hours. No mechanical rubbing was applied to the cleaning regimen. Both the extract and the soaking solution were then assessed for lysozyme by the protein intrinsic fluorescence method using a fluorescence spectrophotometer (excitation wavelength is 280 nm, emission wavelength is 354 nm), or by a scintillation counter for the C14-lysozyme. The quantification of lysozyme was based on a lysozyme standard curve established using the same vehicle and instrumental setting used for the lens extract and lens soaking solution. The results are show in Tables 9-10.
substance,measurement,setting,value
"Trypsin [Native Trypsin, reference compound]",% Activity Remaining,"azocasein [1]; 30° C., 1 day",90.8%
same,% Activity Remaining,"azocasein [1]; 30° C., 2 days",78.7%
same,% Activity Remaining,"azocasein [1]; 30° C., 5 days",66.7%
same,% Activity Remaining,"azocasein [1]; 30° C., 7 days",62.4%
same,% Activity Remaining,"azocasein [1]; 30° C., 14 days",52.4%
same,% Activity Remaining,"azocasein [1]; RT, 1 day",102.5%
same,% Activity Remaining,"azocasein [1]; RT, 2 days",101.5%
same,% Activity Remaining,"azocasein [1]; RT, 5 days",98.5%
same,% Activity Remaining,"azocasein [1]; RT, 7 days",93.6%
same,% Activity Remaining,"azocasein [1]; RT, 14 days",85.7%
same,% Activity Remaining,"azocasein [1]; RT, 21 days",79.6%
same,% Activity Remaining,"azocasein [1]; RT, 28 days",74.4%
same,% Activity Remaining,"azocasein [1]; RT, 35 days",73.8%
same,% Activity Remaining,"azocasein [1]; RT, 42 days",61.3%
same,% Remaining Activity,"azocasein [2]; 30° C., 1 week",65.7%
same,% Remaining Activity,"azocasein [2]; 30° C., 2 weeks",54.6%
same,% Remaining Activity,"azocasein [2]; 30° C., 3 weeks",47.1%
same,% Remaining Activity,"azocasein [2]; 30° C., 4 weeks",44.9%
same,% Remaining Activity,"azocasein [2]; 30° C., 6 weeks",35.8%
same,% Remaining Activity,"azocasein [2]; 30° C., 8 weeks",30.4%
same,% Remaining Activity,"azocasein [2]; 35° C., 1 week",30.8%
same,% Remaining Activity,"azocasein [2]; 35° C., 2 weeks",19.9%
same,% Remaining Activity,"azocasein [2]; 35° C., 3 weeks",13.3%
same,% Remaining Activity,"azocasein [2]; 35° C., 4 weeks",12.8%
same,% Remaining Activity,"azocasein [2]; 35° C., 6 weeks",8.8%
same,% Remaining Activity,"azocasein [2]; 35° C., 8 weeks",5.2%
same,% Remaining Activity,"azocasein [2]; RT, 1 week",93.5%
same,% Remaining Activity,"azocasein [2]; RT, 2 weeks",86.8%
same,% Remaining Activity,"azocasein [2]; RT, 3 weeks",82.5%
same,% Remaining Activity,"azocasein [2]; RT, 4 weeks",79.5%
same,% Remaining Activity,"azocasein [2]; RT, 6 weeks",71.0%
same,% Remaining Activity,"azocasein [2]; RT, 8 weeks",64.2%
same,"Lysozyme, Total",lysozyme deposits,317.40 μg/Lens
same,"Lysozyme, ACN/TFA Extract",lysozyme deposits,83.92 μg/Lens
same,% Cleaning Efficacy,lysozyme deposits,73.6%
same,"Lysozyme, Hydrolysate",lysozyme deposits,233.45 μg/Lens
methyl trypsin [Me-Trypsin],% Activity Remaining,"azocasein [1]; 30° C., 1 day",99.7%
same,% Activity Remaining,"azocasein [1]; 30° C., 2 days",97.8%
same,% Activity Remaining,"azocasein [1]; 30° C., 5 days",96.1%
same,% Activity Remaining,"azocasein [1]; 30° C., 7 days",93.5%
same,% Activity Remaining,"azocasein [1]; 30° C., 14 days",91.8%
same,% Activity Remaining,"azocasein [1]; 30° C., 21 days",86.7%
same,% Activity Remaining,"azocasein [1]; 30° C., 28 days",82.7%
same,% Activity Remaining,"azocasein [1]; 30° C., 35 days",80.0%
same,% Activity Remaining,"azocasein [1]; 30° C., 42 days",76.3%
same,% Activity Remaining,"azocasein [1]; RT, 1 day",100.9%
same,% Activity Remaining,"azocasein [1]; RT, 2 days",100.8%
same,% Activity Remaining,"azocasein [1]; RT, 5 days",97.9%
same,% Activity Remaining,"azocasein [1]; RT, 7 days",99.4%
same,% Activity Remaining,"azocasein [1]; RT, 14 days",100.0%
same,% Activity Remaining,"azocasein [1]; RT, 21 days",98.5%
same,% Activity Remaining,"azocasein [1]; RT, 28 days",96.6%
same,% Activity Remaining,"azocasein [1]; RT, 35 days",96.5%
same,% Activity Remaining,"azocasein [1]; RT, 42 days",94.0%
same,stability in a disinfecting composition over analogous compositions containing trypsin or pancreatin,azocasein [1]; summary of Table 2,superior stability
same,% Remaining Activity,"azocasein [2]; 30° C., 1 week",97.0%
same,% Remaining Activity,"azocasein [2]; 30° C., 2 weeks",97.2%
same,% Remaining Activity,"azocasein [2]; 30° C., 3 weeks",91.1%
same,% Remaining Activity,"azocasein [2]; 30° C., 4 weeks",90.6%
same,% Remaining Activity,"azocasein [2]; 30° C., 6 weeks",85.8%
same,% Remaining Activity,"azocasein [2]; 30° C., 8 weeks",83.0%
same,% Remaining Activity,"azocasein [2]; 35° C., 1 week",82.1%
same,% Remaining Activity,"azocasein [2]; 35° C., 2 weeks",75.0%
same,% Remaining Activity,"azocasein [2]; 35° C., 3 weeks",71.4%
same,% Remaining Activity,"azocasein [2]; 35° C., 4 weeks",65.2%
same,% Remaining Activity,"azocasein [2]; 35° C., 6 weeks",55.9%
same,% Remaining Activity,"azocasein [2]; 35° C., 8 weeks",50.3%
same,% Remaining Activity,"azocasein [2]; RT, 1 week",101.3%
same,% Remaining Activity,"azocasein [2]; RT, 2 weeks",99.6%
same,% Remaining Activity,"azocasein [2]; RT, 3 weeks",98.4%
same,% Remaining Activity,"azocasein [2]; RT, 4 weeks",98.1%
same,% Remaining Activity,"azocasein [2]; RT, 6 weeks",96.0%
same,% Remaining Activity,"azocasein [2]; RT, 8 weeks",96.4%
same,"Lysozyme, Total",lysozyme deposits,274.35 μg/Lens
same,"Lysozyme, ACN/TFA Extract",lysozyme deposits,72.90 μg/Lens
same,% Cleaning Efficacy,lysozyme deposits,73.4%
same,"Lysozyme, Hydrolysate",lysozyme deposits,201.45 μg/Lens
